# Source: patent publication US7655759 (VRIJE UNIVERSITEIT BRUSSEL, dated 2010)
# T1: recombinant C fragment of tetanus neurotoxin (Clostridium tetani, UniProt P04958 865-1315)
# T1 construct: domain: C fragment
# T1 sequence: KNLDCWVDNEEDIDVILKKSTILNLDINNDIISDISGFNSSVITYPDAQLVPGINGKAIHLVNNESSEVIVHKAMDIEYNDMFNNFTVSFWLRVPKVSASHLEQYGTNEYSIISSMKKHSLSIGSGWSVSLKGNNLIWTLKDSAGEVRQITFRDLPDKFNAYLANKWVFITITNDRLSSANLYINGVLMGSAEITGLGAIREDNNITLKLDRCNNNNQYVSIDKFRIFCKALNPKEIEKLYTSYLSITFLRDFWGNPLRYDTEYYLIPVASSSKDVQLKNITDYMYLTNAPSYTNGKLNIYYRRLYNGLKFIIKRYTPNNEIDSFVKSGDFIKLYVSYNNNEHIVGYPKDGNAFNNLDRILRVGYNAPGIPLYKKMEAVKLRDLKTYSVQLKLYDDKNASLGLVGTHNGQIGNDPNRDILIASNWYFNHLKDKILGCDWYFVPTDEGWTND
# B1: camel VHH α-LYS3 (anti-lysozyme) (VHH)
# VHH: DVQLQASGGGSVQAGGSLRLSCAASGYTIGPYCMGWFRQAPGKEREGVAAINMGGGITYYADSVKGRFTISQDNAKNTVYLLMNSLEPEDTAIYYCAADSTIYASYYECGHGLSTGGYGYDSWGQGTQVTVSS
# notes: also called LYS3 VHH; pHEN4-αLYS3
# B2: camel VHH α-LYS2 (anti-lysozyme) (VHH)
# VHH: EVQLQASGGGSVQAGQSLRLSCATSGATSSSNCMGWFRQAPGKEREGVAVIDTGRGNTAYADSVQGRLTISLDNAKNTLYLQMNSLKPEDTAMYYCAADTSTWYRGYCGTNPNYFSYWGQGTQVTVSS
# notes: also called LYS2 VHH; pHEN4-αLYS2
# B3: camel VHH αTT2 (anti-tetanus toxoid) (VHH)
# VHH: EVQLQASGGGSVQAGGSLRLSCTAANYAFDSKTVGWFRQVPGKEREGVAGISSGGSTTAYSDSVKGRYTVSLENAKNTVYLLIDNLQPEDTAIYYCAGVSGWRGRQWLLLAETYRFWGQGTQVTVSS
# Key:
# Protein A = target: T2, Protein A (UniProt P38507 37-477); assay: Protein A-Sepharose chromatography
# T2 construct: also called Protein A-SEPHAROSE
# Hen Egg Lysozyme = target: T3, Hen Egg Lysozyme (hen, UniProt P00698 19-147); assay: inhibition ELISA, binding competed with free antigen
# T3 construct: also called HEL
# [1] = target: T1, recombinant C fragment of tetanus …; assay: ELISA, bacterial extract
Binder,binding result (Protein A),Ki (Hen Egg Lysozyme),binding result [1]
B1,no binding,~500 nM,
B2,,~50 nM,
B3,,,no binding
